Tested on: Bacillus subtilis
Assay: cleaved RNA product abundance (RNA/gDNA barcode ratio) relative to median wild-type variant (ratio to wild type); higher = more accumulation of the downstream cleavage product
Conditions: cleavage site: cggR-gapA (positions -7 to +36 mutated)
In short: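 Cleaved product abundance is expressed as the RNA:gDNA barcode ratio per construct, scaled to the median construct carrying the unmutated site. The constructs were barcoded, mutagenized RNase Y cleavage-site windows in truncated aprE or tetM reporter mRNAs integrated into the B. subtilis chromosome. Cultures grew in LB at 37°C from OD600 0.0003 to 0.3 before cleaved RNA was gel-selected and barcode-sequenced.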

[1] = experiment (reporter, strain, medium): exp 4a: truncated aprE reporter, strain BJT201 with 2% xylose (RNase J1 expressed)
[2] = experiment (reporter, strain, medium): exp 2b: truncated aprE reporter, strain BJT200
[3] = experiment (reporter, strain, medium): exp 6: tetM reporter, strain 168

| Sequence | cleaved RNA product abundance [1] | cleaved RNA product abundance [2] | cleaved RNA product abundance [3] |
| --- | --- | --- | --- |
| ACAGACGAAGGAGCCGCAAAGAAGTTAATAAGGGATGTATAATCCCTCAATATAAATATCTCTCACTTATTTAAA | 0.322 |  |  |
| ACAGACGAAGGAGCCGCAAAGAAGTTAATAAGGGATTAATAATCCCTCAATATAAATATCTCTCACTTATTTAAA | 0.313 | 0.218 |  |
| ACAGACGAAGGAGCCGCAAAGAAGTTAATAAGGTATGAATAATCCCTCAATATAAATATCTCTCACTTATTTAAA | 0.15 | 0.0951 |  |
| ACAGACGAAGGAGCCGCAAAGAAGTTAATAAGTGATGAATAATCCCTCAATATAAATATCTCTCACTTATTTAAA | 0.129 | 0.167 |  |
| ACAGACGAAGGAGCCGCAAAGAAGTTAATAATGGATGAATAATCCCTCAATATAAATATCTCTCACTTATTTAAA | 0.137 | 0.104 |  |
| ACAGACGAAGGAGCCGCAAAGAAGTTAATAGGGGATGAATAATCCCTCAATATAAATATCTCTCACTTATTTAAA | 0.292 |  |  |
| ACAGACGAAGGAGCCGCAAAGAAGTTACAAAGGGATGAATAATCCCACAATATAAATATCTCTCACTTATTTAAA | 0.157 |  |  |
| ACAGACGAAGGAGCCGCAAAGAAGTTACAAAGGGATGAATAATCCCTCAATATAAATATCTCTCACTTATTTAAA | 0.257 |  |  |
| ACAGACGAAGGAGCCGCAAAGAAGTTACTAAAGGATGAATAATCCCTCAATATAAATATCTCTCACTTATTTAAA | 0.171 | 0.0999 |  |
| ACAGACGAAGGAGCCGCAAAGAAGTTACTAACGGATGAATAATCCCTCAATATAAATATCTCTCACTTATTTAAA | 0.162 | 0.0838 |  |
| ACAGACGAAGGAGCCGCAAAGAAGTTACTAAGGAATGAATAATCCCTCAATATAAATATCTCTCACTTATTTAAA | 0.143 | 0.0952 |  |
| ACAGACGAAGGAGCCGCAAAGAAGTTACTAAGGCATGAATAATCCCTCAATATAAATATCTCTCACTTATTTAAA | 0.112 |  |  |
| ACAGACGAAGGAGCCGCAAAGAAGTTACTAAGGGAAGAATAATCCCTCAATATAAATATCTCTCACTTATTTAAA | 0.138 |  |  |
| ACAGACGAAGGAGCCGCAAAGAAGTTACTAAGGGACGAATAATCCCTCAATATAAATATCTCTCACTTATTTAAA |  | 0.131 |  |
| ACAGACGAAGGAGCCGCAAAGAAGTTACTAAGGGATAAATAATCCCTCAATATAAATATCTCTCACTTATTTAAA | 0.224 | 0.206 |  |
| ACAGACGAAGGAGCCGCAAAGAAGTTACTAAGGGATCAATAATCCCTCAATATAAATATCTCTCACTTATTTAAA | 0.208 |  |  |
| ACAGACGAAGGAGCCGCAAAGAAGTTACTAAGGGATGAACAATCCCTCAATATAAATATCTCTCACTTATTTAAA | 0.266 |  |  |
| ACAGACGAAGGAGCCGCAAAGAAGTTACTAAGGGATGAATAAACCCTCAATATAAATATCTCTCACTTATTTAAA | 0.14 |  |  |
| ACAGACGAAGGAGCCGCAAAGAAGTTACTAAGGGATGAATAATCACTCAATATAAATATCTCTCACTTATTTAAA | 0.177 |  |  |
| ACAGACGAAGGAGCCGCAAAGAAGTTACTAAGGGATGAATAATCCCACAATATAAATATCTCTCACTTATTTAAA | 0.153 | 0.126 |  |

| Sequence | cleaved RNA product abundance [1] | cleaved RNA product abundance [2] | cleaved RNA product abundance [3] |
| --- | --- | --- | --- |
| ACAGACGAAGGAGCCGCAAAGAAGTTACTAAGGGATGAATAATCCCTAAATATAAATATCTCTCACTTATTTAAA | 0.253 |  |  |
| ACAGACGAAGGAGCCGCAAAGAAGTTACTAAGGGATGAATAATCCCTCAAAATAAATATCTCTCACTTATTTAAA | 0.288 |  |  |
| ACAGACGAAGGAGCCGCAAAGAAGTTACTAAGGGATGAATAATCCCTCAATATAAATATCTCTCACTTATTTAAA | 0.314 | 0.219 | 0.275 |
| ACAGACGAAGGAGCCGCAAAGAAGTTACTAAGGGATGAATAATCCCTCAATATATATATCTCTCACTTATTTAAA | 0.346 |  |  |
| ACAGACGAAGGAGCCGCAAAGAAGTTACTAAGGGATGAATAATCCCTCATTATAAATATCTCTCACTTATTTAAA | 0.342 | 0.218 |  |
| ACAGACGAAGGAGCCGCAAAGAAGTTACTAAGGGATGAATAATCCCTCGATATAAATATCTCTCACTTATTTAAA | 0.227 |  |  |
| ACAGACGAAGGAGCCGCAAAGAAGTTACTAAGGGATGAATAATCGCTCAATATAAATATCTCTCACTTATTTAAA | 0.0864 | 0.0765 |  |
| ACAGACGAAGGAGCCGCAAAGAAGTTACTAAGGGATGAATAATCTCTCAATATAAATATCTCTCACTTATTTAAA | 0.22 | 0.149 |  |
| ACAGACGAAGGAGCCGCAAAGAAGTTACTAAGGGATGAATAATTCCTCAATATAAATATCTCTCACTTATTTAAA | 0.24 |  |  |
| ACAGACGAAGGAGCCGCAAAGAAGTTACTAAGGGATGAATACTCCCTCAATATAAATATCTCTCACTTATTTAAA |  | 0.107 |  |
| ACAGACGAAGGAGCCGCAAAGAAGTTACTAAGGGATGAATTATCCCTCAATATAAATATCTCTCACTTATTTAAA | 0.25 | 0.199 |  |
| ACAGACGAAGGAGCCGCAAAGAAGTTACTAAGGGATGATTAATCCCTCAATATAAATATCTCTCACTTATTTAAA |  | 0.155 |  |
| ACAGACGAAGGAGCCGCAAAGAAGTTACTAAGGGATGCATAATCCCTCAATATAAATATCTCTCACTTATTTAAA | 0.235 |  |  |
| ACAGACGAAGGAGCCGCAAAGAAGTTACTAAGGGATGGATAATCCCTCAATATAAATATCTCTCACTTATTTAAA | 0.208 |  |  |
| ACAGACGAAGGAGCCGCAAAGAAGTTACTAAGGGATTAATAATCCCTCAATATAAATATCTCTCACTTATTTAAA | 0.299 | 0.169 |  |
| ACAGACGAAGGAGCCGCAAAGAAGTTACTAAGGGGTGAATAATCCCTCAATATAAATATCTCTCACTTATTTAAA |  | 0.144 |  |
| ACAGACGAAGGAGCCGCAAAGAAGTTACTAAGGTATGAATAATCCCTCAATATAAATATCTCTCACTTATTTAAA | 0.15 | 0.103 | 0.0813 |
| ACAGACGAAGGAGCCGCAAAGAAGTTACTAAGTGATGAATAATCCCTCAATATAAATATCTCTCACTTATTTAAA | 0.102 | 0.0989 |  |
| ACAGACGAAGGAGCCGCAAAGAAGTTACTAATGGATGAATAATCCCTCAATATAAATATCTCTCACTTATTTAAA | 0.172 | 0.112 |  |
| ACAGACGAAGGAGCCGCAAAGAAGTTACTATGGGATGAATAATCCCTCAATATAAATATCTCTCACTTATTTAAA | 0.228 |  |  |

| Sequence | cleaved RNA product abundance [1] | cleaved RNA product abundance [2] | cleaved RNA product abundance [3] |
| --- | --- | --- | --- |
| ACAGACGAAGGAGCCGCAAAGAAGTTAGAAAGGGATGAATAATCCCTCAATATAAATATCTCTCACTTATTTAAA | 0.426 |  |  |
| ACAGACGAAGGAGCCGCAAAGAAGTTAGTAAGCGATGAATAATCCCTCAATATAAATATCTCTCACTTATTTAAA | 0.0715 |  |  |
| ACAGACGAAGGAGCCGCAAAGAAGTTAGTAAGGAATGAATAATCCCTCAATATAAATATCTCTCACTTATTTAAA |  | 0.0912 |  |
| ACAGACGAAGGAGCCGCAAAGAAGTTAGTAAGGGAAGAATAATCCCTCAATATAAATATCTCTCACTTATTTAAA | 0.302 |  |  |
| ACAGACGAAGGAGCCGCAAAGAAGTTAGTAAGGGAGGAATAATCCCTCAATATAAATATCTCTCACTTATTTAAA | 0.199 | 0.123 |  |
| ACAGACGAAGGAGCCGCAAAGAAGTTAGTAAGGGATCAATAATCCCTCAATATAAATATCTCTCACTTATTTAAA | 0.305 |  |  |
| ACAGACGAAGGAGCCGCAAAGAAGTTAGTAAGGGATGAATAAACCCTCAATATAAATATCTCTCACTTATTTAAA | 0.158 |  |  |
| ACAGACGAAGGAGCCGCAAAGAAGTTAGTAAGGGATGAATAATACCTCAATATAAATATCTCTCACTTATTTAAA | 0.151 |  |  |
| ACAGACGAAGGAGCCGCAAAGAAGTTAGTAAGGGATGAATAATCCATCAATATAAATATCTCTCACTTATTTAAA |  | 0.251 |  |
| ACAGACGAAGGAGCCGCAAAGAAGTTAGTAAGGGATGAATAATCCCTCAATATAAATATCTCTCACTTATTTAAA | 0.443 | 0.306 | 0.559 |
| ACAGACGAAGGAGCCGCAAAGAAGTTAGTAAGGGATGAATAATCCCTCAATATAAATGTCTCTCACTTATTTAAA |  | 0.187 |  |
| ACAGACGAAGGAGCCGCAAAGAAGTTAGTAAGGGATGAATAATCCCTTAATATAAATATCTCTCACTTATTTAAA | 0.724 |  |  |
| ACAGACGAAGGAGCCGCAAAGAAGTTAGTAAGGGATGAATAATCCGTCAATATAAATATCTCTCACTTATTTAAA | 0.218 |  |  |
| ACAGACGAAGGAGCCGCAAAGAAGTTAGTAAGGGATGAATAATCCTTCAATATAAATATCTCTCACTTATTTAAA |  | 0.29 |  |
| ACAGACGAAGGAGCCGCAAAGAAGTTAGTAAGGGATTAATAATCCCTCAATATAAATATCTCTCACTTATTTAAA | 0.406 |  |  |
| ACAGACGAAGGAGCCGCAAAGAAGTTAGTAAGGTATGAATAATCCCTCAATATAAATATCTCTCACTTATTTAAA | 0.135 |  |  |
| ACAGACGAAGGAGCCGCAAAGAAGTTAGTAATGGATGAATAATCCCTCAATATAAATATCTCTCACTTATTTAAA | 0.141 |  |  |
| ACAGACGAAGGAGCCGCAAAGAAGTTAGTACGGGATGAATAATCCCTCAATATAAATATCTCTCACTTATTTAAA |  | 0.269 |  |
| ACAGACGAAGGAGCCGCAAAGAAGTTATAAAAGGATAAATAATCCCTCAATATAAATATCTCTCACTTATTTAAA |  | 0.141 |  |

— the supplement of paper PMC11780869
